Target: murine DNGR-1 (CLEC9A) expressed in B3Z NFAT reporter cells with SYK (mouse) (UniProt Q8BRU4)
Sequence of UniProt Q8BRU4 (Q8BRU4 whole entry): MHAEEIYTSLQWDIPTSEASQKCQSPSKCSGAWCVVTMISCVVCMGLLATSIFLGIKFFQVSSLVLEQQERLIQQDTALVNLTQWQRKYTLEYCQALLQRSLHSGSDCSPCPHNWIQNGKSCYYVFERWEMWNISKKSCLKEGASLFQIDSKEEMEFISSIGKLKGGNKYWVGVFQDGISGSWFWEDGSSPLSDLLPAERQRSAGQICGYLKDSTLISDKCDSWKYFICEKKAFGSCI

“DNGR-1 ligand (DNGR-1L), F-actin-myosin II complexes (from UniProt P68135 1-377)” showed a β-galactosidase (NFAT-LacZ) reporter activity of B3Z cells expressing DNGR-1 and SYK, stimulated with DNGR-1L, dose-dependent; EC50 of 5 nM.

Source: article PMC12669754
